The target of one assay is IscU (Escherichia coli) (UniProt P0ACD4). To be noted: cited from earlier work.
Assay [1] addresses T1, IscS (E. coli, UniProt P0A6B7 1-404).
T1 construct: IscS, pyridoxal phosphate dependent cysteine desulfurase of the isc operon, E. coli; subcloned by PCR from bacterial genomic DNA; For MST only, IscS was labelled with the amine-reactive dye NT-647 (about 0.67 dye molecules per IscS, RED-NHS kit); unlabelled in all other experiments; also called desulfurase IscS; wild-type IscS; source: E. coli BL21(DE3), purified (Ni-NTA, TEV cleavage, gel …)
Description: MST; IscS labelled with NT-647 at 52 nM, HscB serially diluted 1:1 from 600 uM (12 solutions); 20 mM Tris-HCl pH 8, 150 mM NaCl, 0.5 mM TCEP, 0.05% Tween-20; 25 C; 40-60% LED power, 17% IR-laser power; 1:1 stoichiometry assumed. The settings on record: both partners purified.

Assay [2] deals with T1, IscS. Description: NMR titration; competition: 15N HSQC of 100 uM 15N-labelled HscB in complex with unlabelled IscS (1:1), titrated with CyaY or apo-Fdx up to 1:1:3. The settings on record: both partners purified.

We go through three molecules from publication PMC5037179 (Frontiers in Molecular Biosciences, 2016).

T1 sequence (P0A6B7 whole entry): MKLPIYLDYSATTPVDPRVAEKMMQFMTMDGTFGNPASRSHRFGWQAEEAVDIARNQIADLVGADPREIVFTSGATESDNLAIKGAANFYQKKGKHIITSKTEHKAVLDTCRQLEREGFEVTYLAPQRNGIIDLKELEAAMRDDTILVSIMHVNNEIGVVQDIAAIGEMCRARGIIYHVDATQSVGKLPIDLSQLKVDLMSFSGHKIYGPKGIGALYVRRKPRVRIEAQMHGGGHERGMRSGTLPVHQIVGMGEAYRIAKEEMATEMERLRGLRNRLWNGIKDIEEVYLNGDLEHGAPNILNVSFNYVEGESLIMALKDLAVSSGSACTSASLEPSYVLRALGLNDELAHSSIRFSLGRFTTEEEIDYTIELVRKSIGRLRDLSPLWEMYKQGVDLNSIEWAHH
IscU (Escherichia coli), sequence (P0ACD4 whole entry): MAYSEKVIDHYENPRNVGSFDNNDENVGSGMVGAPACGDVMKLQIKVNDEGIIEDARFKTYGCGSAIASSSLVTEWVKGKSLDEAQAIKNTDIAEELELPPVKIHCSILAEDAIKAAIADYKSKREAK

Take IscS (from UniProt P0A6B7): the Kd with IscU (Escherichia coli) is 10 µM.

B1: HscB (natural protein, E. coli)
chain: MDYFTLFGLPARYQLDTQALSLRFQDLQRQYHPDKFASGSQAEQLAAVQQSATINQAWQTLRHPLMRAEYLLSLHGFDLASEQHTVRDTAFLMEQLELREELDEIEQAKDEARLESFIKRVKKMFDTRHQLMVEQLDNETWDAAADTVRKLRFLDKLRSSAEQLEEKLLDF
notes: HscB, co-chaperone of the isc operon, E. coli; subcloned by PCR from bacterial genomic DNA; Uniformly 15N-labelled (HSQC) or 2H,15N-labelled (cross saturation) for NMR; unlabelled in MST, cross-linking and when added to 15N IscU; also called co-chaperone HscB; source: E. coli BL21(DE3), purified (Ni-NTA, TEV cleavage, gel filtration)
Take B1: the dissociation constant Kd with IscS [1] was in the range of 10 to 30 µM.

B2: apo-Fdx (natural protein, E. coli, UniProt P0A9R4 1-111, looked up)
chain: MPKIVILPHQDLCPDGAVLEANSGETILDAALRNGIEIEHACEKSCACTTCHCIVREGFDSLPESSEQEDDMLDKAWGLEPESRLSCQARVTDEDLVVEIPRYTINHAREH
notes: Fdx, ferredoxin of the isc operon, E. coli; subcloned by PCR from bacterial genomic DNA; also called ferredoxin; source: E. coli BL21(DE3), purified (Ni-NTA, TEV cleavage, gel filtration)
Turning to B2, the binding result with IscS [2] is “binds”.
